Measured values as given in CN113735969A (INST MILITARY MEDICINE ACADEMY MILITARY SCIENCES PLA, dated 2021).

Assays:
[1] = molecular target: SARS-CoV-2 WT S-ECD蛋白 (SARS-CoV-2, UniProt P0DTC2 14-1213)
[2] = molecular target: SARS-CoV-2 Alpha株S-ECD蛋白 (SARS-CoV-2 Alpha株 (B.1.1.7))
[3] = molecular target: SARS-CoV-2 Beta株S-ECD蛋白 (SARS-CoV-2 Beta株 (B.1.351))
[4] = molecular target: SARS-CoV-2 Gamma株S-ECD蛋白 (SARS-CoV-2 Gamma株 (P.1))
[5] = molecular target: SARS-CoV-2 Delta株S-ECD蛋白 (SARS-CoV-2 Delta株 (B.1.617.2))
[6] = molecular target: SARS-CoV-2 Alpha株病毒的S蛋白 (SARS-CoV-2 Alpha株 (B.1.1.7)); test: cell-based or functional assay
[7] = molecular target: SARS-CoV-2 Beta株病毒的S蛋白 (SARS-CoV-2 Beta株 (B.1.351)); test: cell-based or functional assay
[8] = molecular target: SARS-CoV-2 Gamma株病毒的S蛋白 (SARS-CoV-2 Gamma株 (P.1)); test: cell-based or functional assay
[9] = molecular target: SARS-CoV-2 Delta株病毒的S蛋白 (SARS-CoV-2 Delta株 (B.1.617.2)); test: cell-based or functional assay

B1: 全人源抗SARS-CoV-2单克隆抗体ZWD12 (antibody, V domains shown)
VH: EVQLVESGGGLVQPGGTLRLSCVASGFSFSNYWMSWVRQAPGKGLEWVANIKQDGSETHYVDSVKGRFTISRDNAKNSLYLQMNSLRADDTAVYFCVKDRTDWELIRGYFGHWGQGTQITVSS
VL: DIVMTQTPSSLSLSPGDRATLSCRASENIINYLAWYQQRPGQSPRLLIYDASNRATGIPARFSGSGSGTDFTLTISSLEPEDFAVYYCQQRIIWPPYTFGQGTKVDIKR
Kd [1]: 0.895 nM
koff [1]: 0.000121 s⁻¹
kon [1]: 135000 M⁻¹ s⁻¹
Kd [2]: 0.826 nM
koff [2]: 0.000111 s⁻¹
kon [2]: 134000 M⁻¹ s⁻¹
Kd [3]: 0.991 nM
koff [3]: 0.000102 s⁻¹
kon [3]: 103000 M⁻¹ s⁻¹
Kd [4]: 1.42 nM
koff [4]: 0.000146 s⁻¹
kon [4]: 102000 M⁻¹ s⁻¹
Kd [5]: 1.91 nM
koff [5]: 0.000133 s⁻¹
kon [5]: 69600 M⁻¹ s⁻¹
假病毒中和 EC50 (luciferase, HEK293T cells) [6]: 4.11 ng/mL
假病毒中和 EC50 (luciferase, HEK293T cells) [7]: 3.56 ng/mL
真病毒中和 EC50 (Vero E6 cells, crystal violet) [7]: 69 ng/mL
假病毒中和 EC50 (luciferase, HEK293T cells) [8]: 3.83 ng/mL
假病毒中和 EC50 (luciferase, HEK293T cells) [9]: 7.29 ng/mL
真病毒中和 EC50 (Vero E6 cells, crystal violet) [9]: 79 ng/mL
